These results are taken from publication PMC9519043.

Series [1] deals with HRSV virus particle (Human respiratory syncytial virus strain A2 (ATCC VR-1540)). Briefly: microfluidic affinity capture, RT-qPCR. The note with it: SPR (BIAcore T200, […], pH not stated. (Quantitative PCR measures a nucleic acid by following its amplification.)
The target in series [2] is SARS-CoV-2 virus particle (S protein), native, patient saliva (SARS-CoV-2 (clinical isolates)) (UniProt P0DTC2). Briefly: microfluidic affinity capture, RT-qPCR. As to conditions: 5' amino C12 linker and TEG spacer 9; 3' inverted dT; SPR (BIAcore T200, […], pH not stated; chip capture from buffer or saliva at 20 ul/min.

On to “TAGGGAAGAGAAGGACATATGATAGTGCGGTGAGCCGTCGGACATACAAATACTTGACTAGTACATGACCACTTGA [HRSV aptamer (Percze et al.), chip form]”, for which the binding signal in series [1] was 74.2 % recovery.
Take “CAGCACCGACCTTGTGCTTTGGGAGTGCTGGTCCAAGGGCGTTAATGGACA [51-nt SARS-CoV-2 aptamer, chip form]”: in series [2], the binding signal was 94.7 % recovery.
